Measured values published in patent publication US20210318338A1.
“And” between values parts separate entries of the source, which are not always exact repeats. Equal entries are not always repeated. Where two headings read alike, the source gives them in different places. Each block holds one molecule with its values, some of them ahead of it.

Experiments:
Test in all cases: cell-based or functional assay
[1] = molecular target: protein S (purified, free form) (UniProt P07225)
[2] = molecular target: protein S (purified, free form) (UniProt P07225); remark: listed apart in the source
[3] = molecular target: tissue factor pathway inhibitor alpha (TFPIα) (UniProt P10646)
UniProt P10646, sequence (P10646 29-304 limits assumed): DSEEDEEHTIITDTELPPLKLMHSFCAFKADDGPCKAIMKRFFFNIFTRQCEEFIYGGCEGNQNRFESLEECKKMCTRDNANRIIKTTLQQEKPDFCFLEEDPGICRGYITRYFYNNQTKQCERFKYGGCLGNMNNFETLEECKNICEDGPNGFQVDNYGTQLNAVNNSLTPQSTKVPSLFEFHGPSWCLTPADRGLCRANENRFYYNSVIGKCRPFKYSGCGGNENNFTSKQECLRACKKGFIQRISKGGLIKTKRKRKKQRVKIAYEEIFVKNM

loss of the TFPIα-cofactor activity of protein S in the FXa inhibition assay (S2765 absorbance; 5 nM protein S, 2 nM FV-Short, 0.25 nM TFPIα, 0.3 nM FXa) [1]: 6.25 nM | loss of the TFPIα-cofactor activity of protein S in the FXa inhibition assay (S2765 absorbance; 5 nM protein S, 2 nM FV-Short, 0.25 nM TFPIα, 0.3 nM FXa) [2]: 3.13 nM
Molecule: C4b-binding protein (C4BP) without bound protein S (from UniProt P04003 49-597; P20851 18-252)

inhibition of FXa by TFPIα (S2765 absorbance) with phospholipid vesicles and 2 nM FV-Short, protein S titrated [3]: 1.25 nM and 5 nM | inhibition of FXa by TFPIα (S2765 absorbance) without added FV-Short [3]: > 10 nM
B1: protein S (purified, free form) (protein, UniProt P07225 42-676, looked up)
chain: ANSLLEETKQGNLERECIEELCNKEEAREVFENDPETDYFYPKYLVCLRSFQTGLFTAARQSTNAYPDLRSCVNAIPDQCSPLPCNEDGYMSCKDGKASFTCTCKPGWQGEKCEFDINECKDPSNINGGCSQICDNTPGSYHCSCKNGFVMLSNKKDCKDVDECSLKPSICGTAVCKNIPGDFECECPEGYRYNLKSKSCEDIDECSENMCAQLCVNYPGGYTCYCDGKKGFKLAQDQKSCEVVSVCLPLNLDTKYELLYLAEQFAGVVLYLKFRLPEISRFSAEFDFRTYDSEGVILYAESIDHSAWLLIALRGGKIEVQLKNEHTSKITTGGDVINNGLWNMVSVEELEHSISIKIAKEAVMDINKPGPLFKPENGLLETKVYFAGFPRKVESELIKPINPRLDGCIRSWNLMKQGASGIKEIIQEKQNKHCLVTVEKGSYYPGSGIAQFHIDYNNVSSAEGWHVNVTLNIRPSTGTGVMLALVSGNNTVPFAVSLVDSTSEKSQDILLSVENTVIYRIQALSLCSDQQSHLEFRVNRNNLELSTPLKIETISHEDLQRQLAVLDKAMKAKVATYLGGLPDVPFSATPVNAFYNGCMEVNINGVQLDLDEAISKHNDIRAHSCPSVWKKTKNS
modifications: contains the modified amino acid gamma-carboxy glutamic acid (positions not given)
